Here are results for one molecule from article PMC3237451, “Missense Mutation in the Second RNA Binding Domain Reveals a Role for Prkra (PACT/RAX) during Skull Development”.

For this data set, the target named is T1, His-RAX WT (PACT) (Mus musculus (cDNA from L929 cells), UniProt Q9WTX2 1-313).
T1 sequence: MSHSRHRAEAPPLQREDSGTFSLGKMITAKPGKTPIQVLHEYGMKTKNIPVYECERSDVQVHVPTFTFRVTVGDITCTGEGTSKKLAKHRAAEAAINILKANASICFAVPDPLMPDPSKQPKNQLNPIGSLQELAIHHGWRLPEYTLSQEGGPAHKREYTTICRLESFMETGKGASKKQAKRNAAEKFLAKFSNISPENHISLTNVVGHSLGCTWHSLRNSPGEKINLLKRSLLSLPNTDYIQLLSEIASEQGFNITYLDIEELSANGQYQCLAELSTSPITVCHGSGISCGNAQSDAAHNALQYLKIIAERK
The data set can be described thus: EMSA; 1 uM His-RAX; 25 fmol probe; competed by poly(I:C); 20 mM Tris pH 7.5, 50 mM KCl, 2 mM MgCl2, 2 mM MnCl2, 5% glycerol; EMSA 15 min at room temperature, 5% acrylamide gel in 0.25x TBE run cold. To be noted: protein: recombinant; blunt. On the technique in general: In EMSA bound probe runs differently from free probe, usually more slowly.

B1: 30-bp dsRNA probe (dsRNA)
RNA 1: GGGAACAAAAGCUGGGUACCGGGCCCCCCC
RNA 2: GGGGGGGCCCGGUACCCAGCUUUUGUUCCC
Consider B1, for which the binding result was “binds”.
